Data as given in article PMC11969024 (2025).

B1: peptide HD2 (from tick evasin EVA4) / CCL19 (biotinylated, synthetic) (parent complex)
chain 1: EEDDYTAYAPLTCYFT
chain 2: GTNDAEDCCLSVTQKPIPGYIVRNFHYLLIKDGCRVPAVVFTTLRGRQLCAPPDQPWVERIIQRLQRTSAKMKRRSS

Variants of: B1
With chain 1 Y5T the enrichment was -5.05 log2 (difference from the parental peptide).
For chain 1 Y5F, the enrichment was -2.5 log2 (difference from the parental peptide).
chain 1 Y5D was tested, and the enrichment was -5.02 log2 (difference from the parental peptide).
chain 1 Y5C was tested, and the enrichment was -4.33 log2 (difference from the parental peptide).
chain 1 Y5S was tested, and the enrichment was -6.07 log2 (difference from the parental peptide).
In the case of chain 1 Y5W, the enrichment is reported as 3.19 log2 (difference from the parental peptide).
With chain 1 Y5H the enrichment was -6.3 log2 (difference from the parental peptide).
With chain 1 Y5I the enrichment was -6.6 log2 (difference from the parental peptide).
For chain 1 Y5N, the enrichment was -6.68 log2 (difference from the parental peptide).
With chain 1 Y5M the enrichment was -5.03 log2 (difference from the parental peptide).
In the case of chain 1 A9M, the enrichment is reported as -0.965 log2 (difference from the parental peptide).
For chain 1 A9E, the enrichment was -4.22 log2 (difference from the parental peptide).
For chain 1 A9I, the enrichment was -3.88 log2 (difference from the parental peptide).
In the case of chain 1 A9C, the enrichment is reported as -8.06 log2 (difference from the parental peptide).
For chain 1 A9V, the enrichment was -6.04 log2 (difference from the parental peptide).
In the case of chain 1 A9R, the enrichment is reported as -5.91 log2 (difference from the parental peptide).
chain 1 A9L was tested, and the enrichment was -1.81 log2 (difference from the parental peptide).
For chain 1 A9F, the enrichment was -2.77 log2 (difference from the parental peptide).
With chain 1 A9T the enrichment was -6.55 log2 (difference from the parental peptide).
For chain 1 A9Y, the enrichment was 0.673 log2 (difference from the parental peptide).
chain 1 D3Y was tested, and the enrichment was -0.734 log2 (difference from the parental peptide).
chain 1 D3E was tested, and the enrichment was -0.508 log2 (difference from the parental peptide).
For chain 1 D3S, the enrichment was -8.53 log2 (difference from the parental peptide).
With chain 1 D3W the enrichment was 0.0843 log2 (difference from the parental peptide).
In the case of chain 1 D3G, the enrichment is reported as -6.43 log2 (difference from the parental peptide).
With chain 1 D3F the enrichment was -3.58 log2 (difference from the parental peptide).
With chain 1 D3L the enrichment was -2.95 log2 (difference from the parental peptide).
In the case of chain 1 D3N, the enrichment is reported as -6.84 log2 (difference from the parental peptide).
chain 1 D3V was tested, and the enrichment was -8.31 log2 (difference from the parental peptide).
For chain 1 A7V, the enrichment was 0.465 log2 (difference from the parental peptide).
In the case of chain 1 A7I, the enrichment is reported as 1.38 log2 (difference from the parental peptide).
chain 1 A7H was tested, and the enrichment was -0.764 log2 (difference from the parental peptide).
chain 1 A7M was tested, and the enrichment was 2.5 log2 (difference from the parental peptide).
For chain 1 A7Y, the enrichment was 4.06 log2 (difference from the parental peptide).
In the case of chain 1 A7E, the enrichment is reported as -0.397 log2 (difference from the parental peptide).
With chain 1 A7S the enrichment was -2.1 log2 (difference from the parental peptide).
For chain 1 A7K, the enrichment was -3.29 log2 (difference from the parental peptide).
In the case of chain 1 A7N, the enrichment is reported as -1.33 log2 (difference from the parental peptide).
For chain 1 A7L, the enrichment was 1.76 log2 (difference from the parental peptide).
chain 1 A7D was tested, and the enrichment was 2 log2 (difference from the parental peptide).
In the case of chain 1 T16R, the enrichment is reported as -6.57 log2 (difference from the parental peptide).
With chain 1 T16L the enrichment was 0.688 log2 (difference from the parental peptide).
In the case of chain 1 T16N, the enrichment is reported as -5.68 log2 (difference from the parental peptide).
With chain 1 T16W the enrichment was 0.831 log2 (difference from the parental peptide).
With chain 1 T16C the enrichment was -6.65 log2 (difference from the parental peptide).
With chain 1 T16H the enrichment was -3.46 log2 (difference from the parental peptide).
With chain 1 T16V the enrichment was 0.157 log2 (difference from the parental peptide).
For chain 1 T16E, the enrichment was -1.61 log2 (difference from the parental peptide).
In the case of chain 1 T16S, the enrichment is reported as -1.7 log2 (difference from the parental peptide).
In the case of chain 1 T16D, the enrichment is reported as -1.5 log2 (difference from the parental peptide).
For chain 1 T16K, the enrichment was -6.25 log2 (difference from the parental peptide).
In the case of chain 1 T16F, the enrichment is reported as -0.403 log2 (difference from the parental peptide).
For chain 1 T16Q, the enrichment was -5.8 log2 (difference from the parental peptide).
For chain 1 T16Y, the enrichment was -0.692 log2 (difference from the parental peptide).
chain 1 Y14A was tested, and the enrichment was -9.01 log2 (difference from the parental peptide).
chain 1 Y14V was tested, and the enrichment was -7.09 log2 (difference from the parental peptide).
In the case of chain 1 Y14F, the enrichment is reported as -2.54 log2 (difference from the parental peptide).
chain 1 Y14G was tested, and the enrichment was -9.47 log2 (difference from the parental peptide).
In the case of chain 1 Y14R, the enrichment is reported as -7.07 log2 (difference from the parental peptide).
In the case of chain 1 Y14P, the enrichment is reported as -7.82 log2 (difference from the parental peptide).
In the case of chain 1 T12H, the enrichment is reported as 0.389 log2 (difference from the parental peptide).
With chain 1 T12P the enrichment was -4.32 log2 (difference from the parental peptide).
With chain 1 T12C the enrichment was -7.61 log2 (difference from the parental peptide).
For chain 1 T12L, the enrichment was 2.69 log2 (difference from the parental peptide).
chain 1 T12A was tested, and the enrichment was -4.86 log2 (difference from the parental peptide).
chain 1 T12M was tested, and the enrichment was 1.53 log2 (difference from the parental peptide).
With chain 1 T12I the enrichment was 5.78 log2 (difference from the parental peptide).
chain 1 T12E was tested, and the enrichment was -6.93 log2 (difference from the parental peptide).
In the case of chain 1 T12Y, the enrichment is reported as 3.73 log2 (difference from the parental peptide).
chain 1 T12F was tested, and the enrichment was 3.41 log2 (difference from the parental peptide).
In the case of chain 1 Y8V, the enrichment is reported as -4.57 log2 (difference from the parental peptide).
chain 1 Y8M was tested, and the enrichment was -4.14 log2 (difference from the parental peptide).
In the case of chain 1 Y8S, the enrichment is reported as -6.72 log2 (difference from the parental peptide).
In the case of chain 1 Y8L, the enrichment is reported as -8.33 log2 (difference from the parental peptide).
For chain 1 Y8H, the enrichment was -6.54 log2 (difference from the parental peptide).
In the case of chain 1 P10T, the enrichment is reported as -5.84 log2 (difference from the parental peptide).
chain 1 P10L was tested, and the enrichment was -6.31 log2 (difference from the parental peptide).
With chain 1 P10G the enrichment was -5.73 log2 (difference from the parental peptide).
With chain 1 P10W the enrichment was -2.06 log2 (difference from the parental peptide).
With chain 1 P10F the enrichment was -4.06 log2 (difference from the parental peptide).
With chain 1 P10M the enrichment was -7.47 log2 (difference from the parental peptide).
For chain 1 P10V, the enrichment was -9.35 log2 (difference from the parental peptide).
With chain 1 P10Y the enrichment was -6.54 log2 (difference from the parental peptide).
chain 1 T6D was tested, and the enrichment was 2.57 log2 (difference from the parental peptide).
chain 1 T6Y was tested, and the enrichment was 4.88 log2 (difference from the parental peptide).
chain 1 T6R was tested, and the enrichment was -3.39 log2 (difference from the parental peptide).
In the case of chain 1 T6G, the enrichment is reported as 1.65 log2 (difference from the parental peptide).
chain 1 T6S was tested, and the enrichment was 0.379 log2 (difference from the parental peptide).
In the case of chain 1 T6N, the enrichment is reported as -0.836 log2 (difference from the parental peptide).
chain 1 T6H was tested, and the enrichment was -2.26 log2 (difference from the parental peptide).
With chain 1 T6C the enrichment was -7.51 log2 (difference from the parental peptide).
In the case of chain 1 T6I, the enrichment is reported as -2.29 log2 (difference from the parental peptide).
For chain 1 T6A, the enrichment was -0.907 log2 (difference from the parental peptide).
In the case of chain 1 T6W, the enrichment is reported as 7.55 log2 (difference from the parental peptide).
chain 1 T6L was tested, and the enrichment was 1.3 log2 (difference from the parental peptide).
chain 1 T6K was tested, and the enrichment was -1.49 log2 (difference from the parental peptide).
With chain 1 T6E the enrichment was 1.9 log2 (difference from the parental peptide).
With chain 1 E1G the enrichment was -6.21 log2 (difference from the parental peptide).
For chain 1 E1T, the enrichment was -5.43 log2 (difference from the parental peptide).
In the case of chain 1 E1P, the enrichment is reported as -6.51 log2 (difference from the parental peptide).
With chain 1 E1L the enrichment was -2.92 log2 (difference from the parental peptide).
For chain 1 E1I, the enrichment was -1.84 log2 (difference from the parental peptide).
With chain 1 E1S the enrichment was -6.42 log2 (difference from the parental peptide).
With chain 1 E1H the enrichment was -5.95 log2 (difference from the parental peptide).
For chain 1 E1M, the enrichment was -5.78 log2 (difference from the parental peptide).
chain 1 E1V was tested, and the enrichment was -1.37 log2 (difference from the parental peptide).
For chain 1 E1A, the enrichment was -5.3 log2 (difference from the parental peptide).
In the case of chain 1 E1Y, the enrichment is reported as 1.7 log2 (difference from the parental peptide).
For chain 1 E1N, the enrichment was -2.91 log2 (difference from the parental peptide).
In the case of chain 1 E1F, the enrichment is reported as -0.113 log2 (difference from the parental peptide).
With chain 1 C13D the enrichment was -7.13 log2 (difference from the parental peptide).
chain 1 C13P was tested, and the enrichment was -6.25 log2 (difference from the parental peptide).
For chain 1 C13S, the enrichment was -6.7 log2 (difference from the parental peptide).
For chain 1 E2A, the enrichment was -0.338 log2 (difference from the parental peptide).
chain 1 E2M was tested, and the enrichment was 0.392 log2 (difference from the parental peptide).
With chain 1 E2T the enrichment was -1.16 log2 (difference from the parental peptide).
In the case of chain 1 E2R, the enrichment is reported as -2.64 log2 (difference from the parental peptide).
For chain 1 E2S, the enrichment was -0.165 log2 (difference from the parental peptide).
chain 1 E2D was tested, and the enrichment was 2.11 log2 (difference from the parental peptide).
chain 1 E2L was tested, and the enrichment was 0.769 log2 (difference from the parental peptide).
chain 1 E2N was tested, and the enrichment was -1.08 log2 (difference from the parental peptide).
With chain 1 F15P the enrichment was -6.33 log2 (difference from the parental peptide).
chain 1 F15M was tested, and the enrichment was -6.46 log2 (difference from the parental peptide).
With chain 1 F15L the enrichment was -2.93 log2 (difference from the parental peptide).
With chain 1 F15Y the enrichment was -1.04 log2 (difference from the parental peptide).
In the case of chain 1 F15T, the enrichment is reported as -3.97 log2 (difference from the parental peptide).
chain 1 F15C was tested, and the enrichment was -6.81 log2 (difference from the parental peptide).
In the case of chain 1 F15W, the enrichment is reported as -0.785 log2 (difference from the parental peptide).
For chain 1 F15E, the enrichment was -4.2 log2 (difference from the parental peptide).
In the case of chain 1 F15V, the enrichment is reported as -3.63 log2 (difference from the parental peptide).
chain 1 F15S was tested, and the enrichment was -6.94 log2 (difference from the parental peptide).
In the case of chain 1 F15Q, the enrichment is reported as -4.06 log2 (difference from the parental peptide).
With chain 1 F15H the enrichment was -3.96 log2 (difference from the parental peptide).
In the case of chain 1 L11P, the enrichment is reported as -5.49 log2 (difference from the parental peptide).
In the case of chain 1 L11Q, the enrichment is reported as -1.91 log2 (difference from the parental peptide).
In the case of chain 1 L11T, the enrichment is reported as -3.41 log2 (difference from the parental peptide).
With chain 1 L11W the enrichment was -0.0314 log2 (difference from the parental peptide).
With chain 1 L11S the enrichment was -5.08 log2 (difference from the parental peptide).
With chain 1 L11C the enrichment was -4.39 log2 (difference from the parental peptide).
With chain 1 L11M the enrichment was -1.53 log2 (difference from the parental peptide).
For chain 1 L11H, the enrichment was -5.81 log2 (difference from the parental peptide).
In the case of chain 1 L11K, the enrichment is reported as -3.64 log2 (difference from the parental peptide).
For chain 1 D4Q, the enrichment was -5.46 log2 (difference from the parental peptide).
With chain 1 D4V the enrichment was -4.18 log2 (difference from the parental peptide).
In the case of chain 1 D4F, the enrichment is reported as -1.53 log2 (difference from the parental peptide).
chain 1 D4M was tested, and the enrichment was -3.6 log2 (difference from the parental peptide).
For chain 1 D4I, the enrichment was -2.59 log2 (difference from the parental peptide).
For chain 1 D4Y, the enrichment was 0.0224 log2 (difference from the parental peptide).
chain 1 D4W was tested, and the enrichment was 0.498 log2 (difference from the parental peptide).
In the case of chain 1 D4S, the enrichment is reported as -6.25 log2 (difference from the parental peptide).
